Here are results for 69 sequences from the domain aggregation screens of Martell et al. (2025).

This data set in a line: soluble fraction after stress (log2 fold change); higher = more stays soluble; pooled small domains, quantitative proteomics. The note with it: stress: 50 degC. In short, it runs like this: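 The measure of aggregation propensity here is the base-two logarithm of the fold change in the soluble amount of each protein after stress. A higher value means more of that protein stays in solution. Stress was applied at 50°C to pooled libraries of small protein domains, read out by high-throughput quantitative proteomics.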
With “HMSTRKAFVNGDGVRLRSGPGTNHSIRASLTKGQTVFVTGTKDGWASVSVQGGASGWVSADLLKYE”, the “soluble fraction (log2)” value is 0.232.
As for “HMKEKLGEFENVFLSVDELQKLKSKLGAETESYIERLSNYIASSGKKYKSHYATILSWTQKDTK”, the “soluble fraction (log2)” value is -0.462.
Take “HMPKAMAIMSEIAGTVHIDDTKKSRHVEVTGVDDNGAPVTKSYLIPFGHRLKVMEGDVLVKGALLT”: the “soluble fraction (log2)” value was -0.0964.
Next, “HMADMKIHLRPYAHDTNRWHVDIRLMHPTAATEIRKRLVAPAGLSEAQARAWGERQVPTILGKALGVI”: -0.415; “HMESGNLIFTNAPIADVVNAIETRYGKKLQASNQTSDLQFTGIFKNTDEFSTVVKTIEIALGLQFEV”: -1.19; “HMGRLEVDLVVPYDKYEAMNVIRAEGRILKEDHQGDGAHLKIQINETALWKLKRMLGEGYGQ”: -0.157.
Under “HMRLPVELTDREVEVLRLLAQAMSNGEIARELYIGEATVKTHVSNVLQKLGARDRVAAVVWAHRYGL” stands -1.59; under “HMLESVMHSRIAEIISREGTAPAHMSMQEKIRVVHKLDADGILMMKGAVAEIADQLSVSVPTIYRYLNKPQ”, -1.8; under “HMLDYITLSPQELGKLLSAGNGDAAMVYLYMKATGDVTLKQAETQLGMTNQNLAWAESLLKRLGLMD”, -0.556.
Next, “HMNDIDRFIEALIEQDTLPGTNSRINEDVISEMKMMTSVEDIKAYAIATVGLTGGQVNNALINSGL”: -0.0823; “HMEKKDTYTVKNGDSLWGIARTELGDGGRFREIYTLNADTIEAEAKKRGRSSSSEGHWIYPGSVLRLP”: 0.0469.
On to “HMDDEDLAFLQREFVSYQQAMDYYGLGYKPVVRLSHISGSVYKIGKKVLIRRNIFEEYLRNHV”, for which the “soluble fraction (log2)” value was -0.00496.
Next, “HMWQKGEPAITGLKRISKPGLRIYSKNDELPIVYGNRGIAVISTNKGVMTGIEAKRSGVGGEVLFYV”: -0.045.
Under “HMGEVPPGWSVEALAAIERDLAHHVGPVARVLVQRGARLHTTTDDLRSALANAITDDLARRRFMQP” stands -0.416; under “HMKKYEIIFNDLKQSIVNGKYSNEERLPPEETLAKKYQTSRVPVQQALNALVGIGMVKRIAGSGTYVTY”, -0.628; under “HMKQISNTDELEAMIQKIIEDNSQQVEKFRSGNEKLFGWFVGQVMKNTQGAANPKVVNEILKKSLK”, 0.177.
Under “HMILESREKYLGEVLEVLVEEEKEGEYFGYSQNYLRVKFKLEEKNLINQLINIKIKSIEDDILIGEKEN” stands -1.46; under “HMEKAISSLTLEEAKKRLEMVRSEKDASLQIYKETGSETARVTAENYGKEENSLLLHISEMSNIV”, -0.469.
In the case of “HMSNFGALLRMRRLEAGLSYRGLAEQSGLARATLVNLEQGLTKPSPLTMRRLASVKALRLTEL”, the “soluble fraction (log2)” value is -2.26.
Next, “HMGVYDLIYLGYGINVEKEELVDQNISIIRRYANIFDPNGDIKGSTNPTYASNTAVLFNEAKFIIDGYD”: -3.65.
Next, “HMHPVEPDDPDQHILFQHLRGQDQVHIDALIRLSGWTADKVSSTLLFMELQGLVKQLPGMYYALE”: -0.0844; “HMKELASKYEISEYMKFLIENLDKSNFFYPIEKRESMINNIFSIYSKADLSKKELNMLWGMLKKLR”: -2.1; “HMNPFTHEEINLMSIYNAAGTREGLIAALTEMWGYLDAEETELRELADSALAKLRGITDAEYAALELE”: -0.633.
Regarding “HMSYQFKIKNNAAVEVTVSEKNNLLGSTYGDKATVAAGMEKNVTFYTDKPDVVVDTNGNFTITVHDKEIII”, the “soluble fraction (log2)” value came to 0.132.
Under “HMETLKEVPNLKGQQQEVAKQLLINAGLGVGKINIIEDSTIADGEVVTQSILPNTKVKKDTYVGFTVNKAP” stands 0.0969.
Under “HMSFGESLKKLSIALNSIRKLATTDAGKKDPKVADLLGQIRDTFNSYRTHLRKNYPDLYSGIKNQL” stands -0.62; under “HMEISLEAKMAEVREQVRGLAGINFRTLLEMQASRSNIIVTFLAILELMKIGAIQIRQEEIFGEIIIDSRD”, -0.222.
With “HMTPFVINVDRHGAVIINEKTVDIDEAVVLARQERSQGKSILLAGDKKAPYEAIIRVLDALKQAG”, the “soluble fraction (log2)” value was -0.185.
Consider “HMSLSEYLSAPVLEGQRNHALFSAVMQAREQGWDEWQIRTTIGAKAEADGLRHAEIAATIRSAMSREITP”, for which the “soluble fraction (log2)” value is -0.121.
Next, “HMEEIDLTPAEEILNKLPDNSRGYLIPTLNKIQNAYRFLPDPAMELLMEFFNVSRAEIFGVISFYPQLMI”: -0.0574; “HMLPQGKGTAMWLADHLAAASVTLDAGARKLLEDTLGEDMSRLPGVLRVLEATFGSDAGRLSAEDIEPFL”: 0.31; “HMGLVQQSAQKSDDAAKLMAANNLNAAQSKYQLPDEAEKDFFTFAFERGYAVEDFVDAGLVDKIMADFSA”: -0.078.
Regarding “HMNRITEFVVPEGTKKIRADKLLAESFPDHSRSDFHRAFDASLVRLEGQPISKNRKISQGDVLVFEMPEI”, the “soluble fraction (log2)” value was 0.281.
Next, “HMNERTKIPLRKIEIGQAVYVDTLEKVGTVIDIQGKQFKVDLAGLPITVAARNLFYPLPQEAKP”: -0.106.
Under “HMFPQQGEIRQGVIASITPDQILVNVGTKSEGIISGKELEAISKSERDSLNVDQKIAVYILDPEDSNG” stands 0.259; under “HMAHESYVKEQLLLSLTNHEDPIMQISLIEQLTKMHERNIIHELEKLTVDVQTNEEVKVQAYASLLILS”, -0.53; under “HMSVSEAELAEKYHADDLEALKSGKLHEFQENLIDRNGKKYTVQTMKDILTLSDGTRLLLGIGLD”, 0.174.
Next, “HMSQRINLNSASIEDMQSLDISNEKIDSIIDYRNRYGNIHNIYELLKIPGITIGDIHSIRNAVTVEIPH”: -0.112; “HMKELTELIEKIKLRRLELGLSYQELSDLTGINKSTLQRYETGFIKKVPINQVQIIAKALNVTPGYLMG”: -0.28.
For the sequence “HMNNIIYLIANKLDVGKRLDQFITIRTEFSRQRVINLIEDGYVKLNNKIINLKKYKIKGDEKIEITIPEIR”, the “soluble fraction (log2)” value was -0.542.
Next, “HMPKSKTPDDAAEEFRTAFSALDMDGKVTVKDMAEYMGVIDKTVYARLKKMGDEFTLDKGVITKKT”: -0.0532.
Next, “HMPPITIVPNDNGVPIIRSQTPEISTAVNVELKAAGINTHTIDGTSIRVPKAQAQVAQQIVSRVNTRFT”: 0.158; “HMTEIILTARSGRHAVRHRLEGLGYTLTPEELERVHQRFLAVADAKKEVFDEDLHALMADERGT”: 0.0349; “HMPQISQDDLMEAGLIVGKEAKQRRIKLGEILGIGYVNAKQLPKRLQLFQVAKSDFEQAVQQIDG”: -0.0431.
Next, “HMNTPLYLKIREQIFDALRSGRWAANDPLPSETKLASEFEVSQGTIRKAIDDLVAQNILYRHQGRGTFIRR”: -0.5; “HMAELAKAKLDAAVQVALLKAGALDTDYLAYKLQGMDGVALDDKGSLTGWDTTLETLKSQYPTQFA”: -0.302.
Regarding “HMSPAVEDYLEQIHNLIAQKGYARVVDIAGNLKISQASVTNMIQRMDADGLVVYERYRGVVLTETGRK”, the “soluble fraction (log2)” value is -1.3.
In the case of “HMEQTMNDMLKLVDLLPQNQQDIVRMRFYENMSFKEIAESNQISINTALGRMRYAILNLRKYAAERNL”, the “soluble fraction (log2)” value was -2.35.
“HMDTRKKLEQIFKLFDKTGTGMVNIDEFKSVLKLFMEEIDEKFGNYFIAYFDENGDGKIEFEEFADVVL”: the “soluble fraction (log2)” value is -0.0635.
Regarding “HMKLTINIDAAHDGKTIKQLFAEKGYSLELIKKFKYDGAIEVNGERKTVRWVLREGDLLVLEAN”, the “soluble fraction (log2)” value is -1.25.
On to “HMVKIVWSKEGPYVGTRVRRYFSQGPVDGTVVMYAKPQKGDDVALWRISHDDGDEEDLEEQELRLAID”, for which the “soluble fraction (log2)” value is -1.65.
Under “HMPEKNQITHLIRLIDDRDEFVRKRVREQLIKLGEDAIPFLEMAAKTENLEIQRIASEIIQAIIPRQ” stands -0.13.
On to “HMRADRLISMLMLLQARGKITAEELAVELGVSQRTIYRDIEALSFAGVPVYAERGPGGGIGLLEPY”, for which the “soluble fraction (log2)” value is -1.7.
Next, “HMAADLIGLEARVTLPLTEDQRGFIETSVRGSLVRRAALSASGRLDRGQRVVILRSEGTTLIVDAL”: -0.844; “HMAKIATTVYEQIRTAILNGELSNSERLVEEDLAVSMGISRTPVREALRRLAAEGLVDVSPNRGARVAE”: -0.293.
Next, “HMRKIFPFNPNFITDQRGYFLGMSTSEIDRLHHFRAANKWIQSAQEFQVVTKVSNAWLSEFSPYFNFP”: -3.39.
On to “HMSEVPVLVAKTDIKELELIDDRKVTLINVPQKFKMPGSFNSPEEVYNTIAAVPIKEGEQITKPRVTWP”, for which the “soluble fraction (log2)” value came out at 0.134.
Under “HMRIPANIAEDIKKLQKKEHHLHHHLGRDPFDDELAKELEWDTEQVSEIRQMIKNPELLEELLEAEREEE” stands 0.172; under “HMEPTLVVARDKDAKSPLVAKLMKELGVDAAPRVIVDDSVIGGAKLSHNHTEIDATYKTALINLYQAIT”, 0.126.
On to “HMDRVTYPVSFNGKVRFQLELDAGMNAKEVETAALGHEKTAAQIEGKTIRKVIVVPGRIINIVV”, for which the “soluble fraction (log2)” value is -0.259.
Under “HMNEIYHQIKVDNVSDDDISLFQYSGIEFDHADYRRGEYIEFAISNRDLSILNNLGYEYQVVHH” stands -0.757; under “HMDHSSLIKKLRLERGLSQKKLAQGISQRSTLASFENNATKISYNILIQYLDRMNVTLEEYQFMLDGNNL”, -2.06; under “HMGIAKLLTEQEYKIALLAAERRTNAMIAEEMNLTENTVKTHLKHIFDKVGIAGNAKNKRHLLADMMNSER”, -0.277.
Next, “HMFPATAPQLKAVHAILGKQGISDELDKLARVNEWLVGLNKEPVAAISELDKHTTSGLIDHLQGELNE”: 0.282; “HMTYNEYPEKEMQDLIDKSISQQEQAASQYGYSLGDYVTARYGFQSESDFREYVQGLAEDYMKEKI”: -0.198.
Next, “HMDDEAVQIMTLHISKGLEFDVVFALGLVSRTPESKEIEELEAEKQRQLYVAMTRAEKWLIVAA”: -0.12.
In the case of “HMDSEEVYQMTKHKMDAAQISVAKRIHINLVLVKLLELHHLGYDLRHYHAQHHAFIKRLNLPEYFRFD”, the “soluble fraction (log2)” value is -1.66.
Next, “HMVPLTPGELVGTEVRVLWWKEGRGEVIASSRGHQLTLEAHSEDPLRAGSTAVVLEAADDVLVVTS”: -0.569; “HMTSRWEIGYNVAKKYYDEHGNLDVERAVYDNFELKKWLNTQRYKNSAGTLAEKYKIKLDELGMNWER”: 0.0505.
